Measured values published in article PMC13267735, “Structural basis of liver de-targeting and neuronal tropism of CNS-targeted AAV capsids” (Molecular therapy : the journal of the American Society of …, 2026).

B1: PKD2 domain of AAVR (AA 401-498) fused to maltose binding protein and 6xHis (domain or fragment)
chain: EPRKNRPPIAIVSPQFQEISLPTTSTVIDGSQSTDDDKIVQYHWEELKGPLREEKISEDTAILKLSKLVPGNYTFSLTVVDSDGATNSTTANLTVNKA
notes: AAV receptor (AAVR), polycystic kidney disease domain 2 (PKD2), AA 401-498; Construct for biolayer interferometry; monomer fraction from SEC was used; also called AAVR-PKD2; MBP-tagged AAVR-PKD2; source: E. coli BL21 (DE3)-RIPL, purified (amylose resin, Superdex 200 SEC)
B2: LY6A (AA 1-109) derived from C57BL/6 mice with Fc (human IgG1), Myc and 6xHis tags (Fc fusion, mouse (C57BL/6), UniProt P05533 27-109, looked up)
chain: LECYQCYGVPFETSCPSITCPYPDGVCVTQEAAVIVDSQTRKVKNNLCLPICPPNIESMEILGTKVNVKTSCCQEDLCNVAVP
notes: signal peptide in the construct; LY6A, C57BL/6 mouse, AA 1-109; also called His-Fc-LY6A; source: HEK293T, transiently transfected, secreted into conditioned media, purified (Ni-NTA)

Tests used:
Conditions in all cases: both partners purified
AAV.CAP-B10 capsid [1] = molecular target: T1, AAV.CAP-B10 capsid (adeno-associated virus serotype 9 (AAV9), UniProt Q6JC40 1-736, 452NGSGQNQ458 to 452DGAATKN458 | 587-588 AQ to DGTLAVPFK); assay: BLI; BLItz; biotin-conjugated CaptureSelect AAV9 nanobody on streptavidin biosensor, AAV (5x10^12 vg/ml) loaded as biolayer, MBP-tagged PKD2 as analyte at 1.25-80 uM, 120 s association and 120 s dissociation; DPBS, 1% BSA, 0.02% Tween-20; Kd averaged from 3 experiments
T1 construct: capsid holds VP1, VP2 and VP3; Whole virus capsid packaging an eGFP genome; VP1/VP2/VP3 assembly; source: HEK293T, triple-transfected (pHelper, capsid and genome plasmids), purified (iodixanol gradient)

eB.24 capsid [2] = molecular target: T2, eB.24 capsid (adeno-associated virus serotype 9 (AAV9), UniProt Q6JC40 1-736, S454A | Q456T | 587-588 AQ to DGTLAVPFK); assay: as above
T2 construct: capsid holds VP1, VP2 and VP3; Whole virus capsid packaging an eGFP genome; VP1/VP2/VP3 assembly; also called PHP.eB.24; source: HEK293T, triple-transfected (pHelper, capsid and genome plasmids), purified (iodixanol gradient)

AAV9-X1.1 capsid = molecular target: T3, AAV9-X1.1 capsid (adeno-associated virus serotype 9 (AAV9), UniProt Q6JC40 1-736, 452NGSGQNQ458 to 452DGAATKN458 | GNNTRSV inserted between 588 and 589); assay: as above
T3 construct: AAV9 capsid protein VP1 with the AAV9-X1 VR-VIII 7-mer insertion GNNTRSV between residues 588 and 589 and the CAP-B10 7-mer in VR-IV (452-458 DGAATKN); capsid holds VP1, VP2 and VP3; Whole virus capsid packaging an eGFP genome (SCP1 promoter); VP1/VP2/VP3 assembly; source: HEK293T, triple-transfected (pHelper, capsid and genome plasmids), purified (iodixanol gradient)

AAV9 (wild-type) capsid = molecular target: T4, AAV9 (wild-type) capsid (adeno-associated virus serotype 9 (AAV9), UniProt Q6JC40 1-736); assay: as above
T4 construct: AAV9 capsid protein VP1; VR-IV 452-458 NGSGQNQ, VR-VIII 587-590 AQAQ; Whole virus capsid packaging an eGFP genome; also called wild-type AAV9; source: HEK293T, triple-transfected (pHelper, capsid and genome plasmids), purified (iodixanol gradient)

AAV9-X1 capsid = molecular target: T5, AAV9-X1 capsid (adeno-associated virus serotype 9 (AAV9), UniProt Q6JC40 1-736, GNNTRSV inserted between 588 and 589); assay: as above
T5 construct: capsid holds VP1, VP2 and VP3; Whole virus capsid packaging an eGFP genome; VP1/VP2/VP3 assembly; source: HEK293T, triple-transfected (pHelper, capsid and genome plasmids), purified (iodixanol gradient)

AAV9-B10 capsid = molecular target: T6, AAV9-B10 capsid (adeno-associated virus serotype 9 (AAV9), UniProt Q6JC40 1-736, 452NGSGQNQ458 to 452DGAATKN458); assay: as above
T6 construct: AAV9 capsid protein VP1 with the CAP-B10 7-mer in VR-IV (452-458 DGAATKN) and unaltered AAV9 VR-VIII; capsid holds VP1, VP2 and VP3; Whole virus capsid packaging an eGFP genome; VP1/VP2/VP3 assembly; source: HEK293T, triple-transfected (pHelper, capsid and genome plasmids), purified (iodixanol gradient)

AAV-PHP.eB capsid [3] = molecular target: T7, AAV-PHP.eB capsid (adeno-associated virus serotype 9 (AAV9), UniProt Q6JC40 1-736, 587-588 AQ to DGTLAVPFK); assay: as above
T7 construct: AAV9 capsid protein VP1 with the PHP.eB VR-VIII 7-mer insertion TLAVPFK between residues 588 and 589 and two flanking point mutations (587-588 AQ to DG); capsid holds VP1, VP2 and VP3; Whole virus capsid packaging an eGFP genome; VP1/VP2/VP3 assembly; source: HEK293T, triple-transfected (pHelper, capsid and genome plasmids), purified (iodixanol gradient)

AAV.CAP-B10 capsid [4] = molecular target: T1, AAV.CAP-B10 capsid; assay: pull-down; 6xHis-tagged bait (AAVR-PKD2 100-200 pmol or His-Fc-LY6A 30-60 pmol) on Ni-NTA resin, prey AAVs (0.05 pmol); DPBS with 20 mM imidazole, 1 hr at 4 C; eluted with 150 mM imidazole; western blot with anti-VP1/VP2/VP3 and anti-6xHis
eB.24 capsid [5] = molecular target: T2, eB.24 capsid; assay: as above
AAV-PHP.eB capsid [6] = molecular target: T7, AAV-PHP.eB capsid; assay: as above

| Binder | Kd (AAV.CAP-B10 capsid [1]) [µM] | Kd (eB.24 capsid [2]) [µM] | Kd (AAV9-X1.1 capsid) [µM] | Kd (AAV9 (wild-type) capsid) [µM] | Kd (AAV9-X1 capsid) [µM] | Kd (AAV9-B10 capsid) [µM] | Kd (AAV-PHP.eB capsid [3]) [µM] | binding result (AAV.CAP-B10 capsid [4]) | binding result (eB.24 capsid [5]) | binding result (AAV-PHP.eB capsid [6]) |
| --- | --- | --- | --- | --- | --- | --- | --- | --- | --- | --- |
| B1 | 61 | 24 | 19 | 11 | 6 | 47 | 14 | – | – | – |
| B2 | – | – | – | – | – | – | – | binds | binds | binds |
